This is an account of results in publication PMC8319318 (2021).

What is called Kd is the constant that tells how readily two partners part at equilibrium.

The assay has as its target actin filament (skeletal muscle actin) (Oryctolagus cuniculus, UniProt P68135). Briefly: TIRF microscopy (steady-state fluorescence density).

B1: anillin (protein)
chain: MDPFTEKLLERTRARRENLQRKMAERPTAAPRSMTHAKRARQPLSEASNQQPLSGGEEKSCTKPSPSKKRCSDNTEVEVSNLENKQPVESTSAKSCSPSPVSPQVQPQAADTISDSVAVPASLLGMRRGLNSRLEATAASSVKTRMQKLAEQRRRWDNDDMTDDIPESSLFSPMPSEEKAASPPRPLLSNASATPVGRRGRLANLAATICSWEDDVNHSFAKQNSVQEQPGTACLSKFSSASGASARINSSSVKQEATFCSQRDGDASLNKALSSSADDASLVNASISSSVKATSPVKSTTSITDAKSCEGQNPELLPKTPISPLKTGVSKPIVKSTLSQTVPSKGELSREICLQSQSKDKSTTPGGTGIKPFLERFGERCQEHSKESPARSTPHRTPIITPNTKAIQERLFKQDTSSSTTHLAQQLKQERQKELACLRGRFDKGNIWSAEKGGNSKSKQLETKQETHCQSTPLKKHQGVSKTQSLPVTEKVTENQIPAKNSSTEPKGFTECEMTKSSPLKITLFLEEDKSLKVTSDPKVEQKIEVIREIEMSVDDDDINSSKVINDLFSDVLEEGELDMEKSQEEMDQALAESSEEQEDALNISSMSLLAPLAQTVGVVSPESLVSTPRLELKDTSRSDESPKPGKFQRTRVPRAESGDSLGSEDRDLLYSIDAYRSQRFKETERPSIKQVIVRKEDVTSKLDEKNNAFPCQVNIKQKMQELNNEINMQQTVIYQASQALNCCVDEEHGKGSLEEAEAERLLLIATGKRTLLIDELNKLKNEGPQRKNKASPQSEFMPSKGSVTLSEIRLPLKADFVCSTVQKPDAANYYYLIILKAGAENMVATPLASTSNSLNGDALTFTTTFTLQDVSNDFEINIEVYSLVQKKDPSGLDKKKKTSKSKAITPKRLLTSITTKSNIHSSVMASPGGLSAVRTSNFALVGSYTLSLSSVGNTKFVLDKVPFLSSLEGHIYLKIKCQVNSSVEERGFLTIFEDVSGFGAWHRRWCVLSGNCISYWTYPDDEKRKNPIGRINLANCTSRQIEPANREFCARRNTFELITVRPQREDDRETLVSQCRDTLCVTKNWLSADTKEERDLWMQKLNQVLVDIRLWQPDACYKPIGKP
modifications: anillin C-terminal GFP tag; F-actin stabilised with biotin-phalloidin
Molecule B1 had a dissociation constant Kd of 7.82 nM.
